Assay results published in patent publication US7527943B2, “Compositions of orthogonal glutamyl-tRNA and aminoacyl-tRNA synthetase pairs and uses thereof” (The Scripps Research Institute, priority 2003, dated 2009).

B1: MtERS: glutamyl-tRNA synthetase from M. thermoautotrophicum (protein, listed as Methanobacterium thermoautotrophicum)
chain: VVPVEDLVYRYALLNAVKHRGRANPGAVMGAVMSNEPELRKMAPQVKEAVEAAVERVNSLSPEEQQQEMERLGLEITERKQKKRKGLRELAGVKGEVVLRFAPNPSGPLHIGHARAAILNHEYARKYDGRLILRIEDTDPRRVDPEAYDMIPADLEWLGVEWDETVIQSDRMETYYEYTEKLIERGGAYVCTCRPEEFRELKNRGEACHCRSLGFRENLQRWREMFEMKEGSAVVRVKTDLNHPNPAIRDWVSMRIVEAEHPRTGTRYRVYPMMNFSVAVDDHLLGVTHVLRGKDHLANREKQEYLYRHLGWEPPEFIHYGRLKMDDVALSTSGAREGILRGEYSGWDDPRLGTLRAIARRGIRPEAIRKLMVEIGVKIADSTMSWKKIYGLNRSILEEEARRYFFAADPVKLEVVGLPGPVRVERPLHPDHPEIGNRVLELRGEVYLPGDDLGEGPLRLIDAVNVIYSGGELRYHSEGIEEARELGASMIHWVPAESALEAEVIMPDASRVRGVIEADASELEVDDVVQLERFGFARLDSAGPGMVFYYAHK
B2: AfERS: glutamyl-tRNA synthetase from A. fulgidus (protein, listed as Archaeoglobus fulgidus)
chain: VKEVIMKYVVQNAAKYGKASEKAVMGKVMAENPELRKKAKEVLELVKECITEFEALSEEVRKELIKKYSMDSEAKRELETKKLPELEGAEKGKVVMRFAPNPNGPPTLGSARGIIVNGEYAKMYEGKYIIRFDDTDPRTKRPMIEAYEWYLEDIEWLGYKPDEVIYASRRIPIYYDYARKLIEMGKAYTCFCSQEEFKKFRDSGEECPHRNISVEDTLEVWERMLEGDYEEGEVVLRIKTDMRHKDPAIRDWVAFRIIKESHPLVGDKYVVYPTLDFESAIEDHLLGITHIIRGKDLIDSERRQRYIYEYFGWIYPITKHWGRVKIFEFGKLSTSSIKKDIERGKYEGWDDPRLPTLRAFRRRGFEPEAIKSFFLSLGVGENDVSVSLKNLYAENRKIIDRKANRYFFIWGPVKIEIVNLPEKKEVELPLNPHTGEKRRLKGERTIYVTKDDFERLKGQVVRLKDFCNVLLDEKAEFMGFELEGVKKGKNIIHWLPESEAIKGKVIGEREAEGLVERNAVRDVGKVVQFERFAFCKVESADEELVAVYTHP
B3: PhERS: glutamyl-tRNA synthetase from P. horikoshii (protein, listed as Pyrococcus horikoshii)
chain: MDVEKIALKHALINAIEHGGKANLKAVIGKVLGENPELRPRAKEIIPIINKVVEEVNSLARDEQLEKLKDIYPEYFEKKEEKKEKKGLPLLPKAEKGKVVTRFAPNPDGAFHLGNARAAILSYEYAKMYGGKFILRFDDTDPKVKRPEPIFYKMIIEDLEWLGIKPDEIVYASDRLEIYYKYAEELIKMGKAYVCTCPPEKFRELRDKGIPCPHRDEPVEVQLERWKKMLNGEYKEGEAVVRIKTDLNHPNPAVRDWPALRIIDNPNHPRTGNKYRVWPLYNFASAIDDHELGVTHIFRGQEHAENETRQRYIYEYFGWEYPVTIHHGRLSIEGVVLSKSKTRKGIEEGKYLGWDDPRLGTIRALRRRGILPEAIKELIIEVGLKKSDATISWENLAAINRKLVDPIANRYFFVADPIPMEVEGAPEFIAEIPLHPDHPERGVRRLKFTPERPVYVSKDDLNLLKPGNFVRLKDLFNVEILEVGDKIRARFYSFEYEIAKKNRWKMVHWVTEGRPCEVIIPEGDELVVRKGLLEKDAKVQVNEIVQFERFGFVRIDRIEGDKVIAIYAHK
B4: MmERS: glutamyl-tRNA synthetase from M. mazei (protein, listed as Methanosarcina mazeii)
chain: MTLSPEDIKIIEKYALQNAVKYGKAPQPKAVMGKVMGECPQLRADPSGVSAALENIVSEIAKGNPEAWEARLSEIAPELIEALSVKKEPDKGLKPLEGAETGKVVMRFAPNPNGPATLGSSRGMVVNSEYVKVYKGKFILRFDDTDPDIKRPMLEAYDWYMDDFKWLGVVPDQVVRASDRFPIYYDYARKLIEMGKAYVCFCKGEDFKRLKDSKKACPHRDTDPEENLMHWEKMLAGEYEDQQAVLRIKTDIEHKDPALRDWGAFRIRKMSHPRPEIGNKYIVWPLLDFAGAIEDHELGMTHIIRGKDLIDSEKRQTYIYKYFGWTYPKTTHWGRVKIHEFGKFSTSTLRKAIESGEYSGWDDPRLPTIRAIRRRGIRAEALKKFMIEMGVGMTDVSISMESLYAENRKIVDPVANRYFFVWNPVELEIEGMKPVVAKVPRHPTDHARGMREISIENKVLVCAEDIEKLNVGSVLRLKDLCNVEITSLSPLRVKRSETSLEDLKKAKGKIIHWVPVDGIPVKVCGPEGDIEGTGERGIETELDNIVQFERFGFCRIDAVDGENVVAYFAHK
B5: AE(GC): archaeal glutamyl consensus-derived amber suppressor tRNA, GC base pair at position 10-28 (nucleic acid)
chain: GCCCCGGUGGUGUAGCCCGGCCAAGCACGCGGGCCUCUAAAGCCCGCGACCCGGGUUCAAAUCCCGGCCGGGGCACCA
modifications: chemistry not fully specified
B6: EcERS: E. coli glutamyl-tRNA synthetase, used as a control (protein, UniProt P04805 1-471, looked up)
Glutamate--tRNA ligase: MKIKTRFAPSPTGYLHVGGARTALYSWLFARNHGGEFVLRIEDTDLERSTPEAIEAIMDGMNWLSLEWDEGPYYQTKRFDRYNAVIDQMLEEGTAYKCYCSKERLEALREEQMAKGEKPRYDGRCRHSHEHHADDEPCVVRFANPQEGSVVFDDQIRGPIEFSNQELDDLIIRRTDGSPTYNFCVVVDDWDMEITHVIRGEDHINNTPRQINILKALKAPVPVYAHVSMINGDDGKKLSKRHGAVSVMQYRDDGYLPEALLNYLVRLGWSHGDQEIFTREEMIKYFTLNAVSKSASAFNTDKLLWLNHHYINALPPEYVATHLQWHIEQENIDTRNGPQLADLVKLLGERCKTLKEMAQSCRYFYEDFAEFDADAAKKHLRPVARQPLEVVRDKLAAITDWTAENVHHAIQATADELEVGMGKVGMPLRVAVTGAGQSPALDVTVHAIGKTRSIERINKALDFIAERENQQ

How the values were obtained:
whole halobacterial tRNA = assay: in vitro aminoacylation assay with [3H]-glutamic acid, whole halobacterial tRNA; format: biochemical, Halobacterium sp. NRC-1; details: 750 nM synthetase, 15 minutes at 37° C.
Description: (§1) In vitro aminoacylation assays: Reactions were carried out as described previously (see, e.g., Hoben, P. and Soll, D. (1985) Glutaminyl-tRNA synthetase of Escherichia coli. Methods Enzymol., 113:55-59). Each 20-μL reaction contained 50 mM Tris-HCl (pH 7.5), 30 mM KCl, 20 mM MgCl2, 0.1 mg/mL BSA, 5 mM glutathione, 2.5 mM ATP, 100 nM 1-[G-^3H]Glutamic acid (Amersham), 750 nM aminoacyl-tRNA synthetase, and 40 μM whole halobacterial tRNA. Reactions were allowed to proceed for 15 minutes at 37° C.
Orthogonality of archaeal glutamyl-tRNA synthetases in E. coli: The ampicillin IC50 measurements described above provide insights into the orthogonality of consensus-designed tRNAs, but provide no information about the orthogonality of archaeal glutamyl-tRNA synthetases in E. coli. To investigate synthetase orthogonality, the AfERS, MnERS, MtERS, and PhERS genes were inserted into a protein overexpression vector. E. coli glutamyl-tRNA synthetase (EcERS) was inserted into the same vector for use as a control. Synthetases were overexpressed in E. coli, purified to homogeneity, and used in an in vitro aminoacylation assay with whole tRNA prepared from either E. coli or the halophilic archaebacterium Halobacterium sp. NRC-1. […] In these experiments, it is unclear why AfERS and MmERS could not aminoacylate whole halobacterial tRNA in vitro (≦5 pmol/L). Without being limited to one theory, it is possible that the enzyme purification and/or assay conditions employed were deleterious to the aminoacylation activity of AfERS and MmERS. Another possibility is that subtle differences in tRNA identity elements might preclude recognition of a given archaeal tRNA^Glu by all archaeal glutamyl-tRNA synthetases. To test the latter, the activity of MmERS was investigated using the in vitro aminoacylation assay with whole tRNA derived from E. coli expressing the AE(GC) tRNA.

[1] = test system: β-lactamase reporter gene containing an amber mutation at the permissive site Ala184; format: cell-based, E. coli; details: for ampicillin IC50 fold greater with AE(GC) tRNA than with AE(GU) tRNA: same synthetase co-expressed
Description: Ampicillin IC50 value measurements: To examine the orthogonality of tRNAs, 10 μL of E. coli DH10B cells (1 cfu/μL) carrying a tRNA-expressing plasmid were plated on a series of LB agar plates containing chloramphenicol and varying concentrations of ampicillin. To measure the IC50 values for cells carrying both tRNA- and synthetase-expressing plasmids, cells were plated on LB agar plates containing chloramphenicol, kanamycin, and varying concentrations of ampicillin. In the initial series, cells were plated on five ampicillin concentrations varying from 0 to 1000 μg/mL and incubated overnight at 37° C. In subsequent series, cells were plated on a narrower ampicillin concentration range surrounding the value initial ampicillin IC50 value estimate. […] Measurements were made in duplicate or triplicate for each cell strain.
Orthogonality of tRNAs: To test the activity and cross-reactivity of the AE(GU), AQ(GU), and AQ(GC) tRNAs, their genes were inserted into plasmid pACKO-A184TAG. E. coli cells were transformed with the resulting plasmids, pAC-AE(GU), pAC-AQ(GU), and pAC-AQ(GC), and the ampicillin IC50 values for the cells were assayed. The tRNA-expressing pAC-based plasmids carry a β-lactamase reporter gene containing an amber mutation at the permissive site Ala184, which serves as a useful reporter for amber codon suppression. Acylation of an amber suppressor tRNA causes the incorporation of the activated amino acid at position 184 of β-lactamase, resulting in suppression of the amber stop codon, production of active full-length β-lactamase and resistance to ampicillin. Because an orthogonal tRNA should not cross-react with endogenous aminoacyl-tRNA synthetases, strains transformed with an orthogonal suppressor tRNA alone should survive only on low concentrations of ampicillin. To assess the orthogonality of designed tRNAs, E. coli transformants were plated on LB agar plates containing varying concentrations of ampicillin (FIG. 2).

[2] = test system: whole tRNA derived from E. coli expressing the AE(GC) tRNA; assay: in vitro aminoacylation assay with whole tRNA from E. coli expressing AE(GC) tRNA; format: biochemical
Description: as §1
(§2) Orthogonality of archaeal glutamyl-tRNA synthetases in E. coli: The ampicillin IC50 measurements described above provide insights into the orthogonality of consensus-designed tRNAs, but provide no information about the orthogonality of archaeal glutamyl-tRNA synthetases in E. coli. To investigate synthetase orthogonality, the AfERS, MnERS, MtERS, and PhERS genes were inserted into a protein overexpression vector. E. coli glutamyl-tRNA synthetase (EcERS) was inserted into the same vector for use as a control. Synthetases were overexpressed in E. coli, purified to homogeneity, and used in an in vitro aminoacylation assay with whole tRNA prepared from either E. coli or the halophilic archaebacterium Halobacterium sp. NRC-1. […] In these experiments, it is unclear why AfERS and MmERS could not aminoacylate whole halobacterial tRNA in vitro (≦5 pmol/L). […]

whole E. coli tRNA = assay: in vitro aminoacylation assay with [3H]-glutamic acid, whole E. coli tRNA; format: biochemical; details: 750 nM synthetase, 15 minutes at 37° C.
Description: as §1, §2

[3] = synthetase co-expressed with AE(GU) tRNA

Molecule	aminoacylation of whole archaeal (halobacterial) tRNA with [3H]-glutamic acid (whole halobacterial tRNA) [pmol/L]	ampicillin IC50 fold higher than cells expressing AE(GU) alone [1, 3] [fold]	ampicillin IC50 fold greater with AE(GC) tRNA than with AE(GU) tRNA [1] [fold]	further results
B1	530	6	–	–
B2	–	7	–	–
B3	1100	12	~3.5	amber suppression efficiency fold less than that of the tyrosyl-tRNA synthetase ([1]; together with the AE(GC) tRNA in E. coli): ~2 fold
B4	–	20	4.5	aminoacylation activity [2]: no activity was observed; ampicillin IC50 fold lower than M. jannaschii-derived tyrosine pair [1, 3]: 4.5 fold; ampicillin IC50 fold lower than M. thermoautotrophicum-derived leucine pair [1, 3]: 10 fold
B5	–	–	–	ampicillin IC50 fold increase relative to cells expressing AE(GU) tRNA alone ([1]; tRNA alone, no synthetase): 4 fold
B6	1.7	–	–	aminoacylation of whole E. coli tRNA with [3H]-glutamic acid (whole E. coli tRNA): 14,000 pmol/L
